From the supplement of paper PMC10126150
± gives the standard deviation of the averaged measurements.

Test system: ATP
Test: switch fluorescence ratio, 500 uM ATP over buffer (Cy3 cluster intensity, sum of 5 cycles each) (fold (ratio)); higher = stronger signal-on switching upon ATP binding; sequences stand for … in TCGTCGGCAGCGTCAGATGTGTATAAGAGACAGTTTTTTTTTTTTTTTTTTTTTTTTT…TC
Conditions: aptamer strand: ATP DNA aptamer (quencher-CACCTGGGGGAGTATTGCGGAGGAAGG + anchor), 100 nM annealed; ATP concentration: 500 uM
Outline: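 The quencher-labelled ATP aptamer, at 100 nM, was annealed to Cy3-labelled switching-strand clusters on a modified Illumina MiSeq flow-cell. The clusters were imaged in selection buffer, then after 15 min with 500 uM ATP at 22 °C, and this buffer/ATP cycle ran five times with NaOH stripping and re-annealing between runs. Per-cluster fluorescence ratios, summed target-cycle over summed buffer-cycle Cy3 intensity, were averaged per switch-domain sequence. Clusters outside 100-1000 RFU were excluded.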
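Note: ATP exposure 15 min at 22 °C before imaging.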

For TGTATTTTTA, the switch fluorescence ratio was 1.01 ± 0.029.
TGTCAGTTGG showed a switch fluorescence ratio of 1.02 ± 0.06.
In the case of TGTCCATGGG, the switch fluorescence ratio is reported as 1.013 ± 0.0047.
Sequence TGTCCCAAGC has a switch fluorescence ratio of 1.18 ± 0.03.
TGTCCGTTGG showed a switch fluorescence ratio of 1.05 ± 0.084.
Work on TGTCCGTTTG yielded a switch fluorescence ratio of 1.01 ± 0.023.
TGTCCTAAAA was tested, and the switch fluorescence ratio was 1.05 ± 0.04.
TGTCCTCAAT showed a switch fluorescence ratio of 1.22 ± 0.02.
TGTCGCTGGG gave a switch fluorescence ratio of 1.02 ± 0.01.
TGTCGGCGGT was tested, and the switch fluorescence ratio was 1.05 ± 0.065.
With TGTCGGGGTA the switch fluorescence ratio was 0.995 ± 0.016.
With TGTCGTGTTT the switch fluorescence ratio was 0.9679 ± 0.0014.
Work on TGTCGTTGGG yielded a switch fluorescence ratio of 0.9566 ± 0.0035.
With TGTGAAAAGT the switch fluorescence ratio was 0.996 ± 0.028.
In the case of TGTGAAAATT, the switch fluorescence ratio is reported as 1.01 ± 0.051.
Work on TGTGAAACCT yielded a switch fluorescence ratio of 1.95 ± 1.2.
With TGTGACCGAA the switch fluorescence ratio was 0.9794 ± 0.0017.
TGTGACGGGA showed a switch fluorescence ratio of 1.091 ± 0.0051.
Sequence TGTGAGGCGC has a switch fluorescence ratio of 1 ± 0.044.
TGTGAGGCTA showed a switch fluorescence ratio of 1.03 ± 0.012.
Sequence TGTGAGTGTA has a switch fluorescence ratio of 1.01 ± 0.025.
TGTGATGCTG gave a switch fluorescence ratio of 1.02 ± 0.044.
With TGTGATTGTT the switch fluorescence ratio was 1.02 ± 0.013.
In the case of TGTGATTTTC, the switch fluorescence ratio is reported as 1.01 ± 0.016.
TGTGCAAAGG showed a switch fluorescence ratio of 0.997 ± 0.042.
Sequence TGTGCGTGAG has a switch fluorescence ratio of 0.9776 ± 0.0015.
Work on TGTGCTATTT yielded a switch fluorescence ratio of 1.09 ± 0.17.
TGTGCTTGGG gave a switch fluorescence ratio of 1.04 ± 0.027.
Work on TGTGGAAGTT yielded a switch fluorescence ratio of 0.9686 ± 0.0021.
TGTGGACCAC gave a switch fluorescence ratio of 1.04 ± 0.038.
TGTGGAGCAT showed a switch fluorescence ratio of 1.29 ± 0.071.
TGTGGATGTC showed a switch fluorescence ratio of 0.977 ± 0.038.
Work on TGTGGCAATT yielded a switch fluorescence ratio of 1.07 ± 0.037.
TGTGGCATTA gave a switch fluorescence ratio of 0.992 ± 0.023.
For TGTGGCGTAT, the switch fluorescence ratio was 1.011 ± 0.0014.
In the case of TGTGGGAATT, the switch fluorescence ratio is reported as 1.01 ± 0.049.
With TGTGGGATGT the switch fluorescence ratio was 0.9704 ± 0.0039.
TGTGGGCAAT was tested, and the switch fluorescence ratio was 1.56 ± 0.77.
With TGTGGGCAGT the switch fluorescence ratio was 1.02 ± 0.03.
Work on TGTGGGCGGA yielded a switch fluorescence ratio of 1.001 ± 0.0079.
Work on TGTGGGGATT yielded a switch fluorescence ratio of 1.02 ± 0.032.
For TGTGGGGCGG, the switch fluorescence ratio was 1.01 ± 0.051.
In the case of TGTGGGGGCA, the switch fluorescence ratio is reported as 0.9953 ± 0.0057.
TGTGGGGGCG was tested, and the switch fluorescence ratio was 1.01 ± 0.017.
TGTGGGGGGT showed a switch fluorescence ratio of 0.992 ± 0.027.
For TGTGGGTTCC, the switch fluorescence ratio was 1.06 ± 0.11.
Sequence TGTGGTAGGT has a switch fluorescence ratio of 1.01 ± 0.057.
With TGTGGTTGGT the switch fluorescence ratio was 1.01 ± 0.032.
In the case of TGTGGTTTTG, the switch fluorescence ratio is reported as 0.9586 ± 0.0042.
TGTGTAAGAC was tested, and the switch fluorescence ratio was 1.16 ± 0.022.
For TGTGTATCGG, the switch fluorescence ratio was 0.958 ± 0.034.
Work on TGTGTATGGT yielded a switch fluorescence ratio of 1.01 ± 0.022.
In the case of TGTGTATTGG, the switch fluorescence ratio is reported as 1 ± 0.045.
In the case of TGTGTATTTT, the switch fluorescence ratio is reported as 0.992 ± 0.028.
For TGTGTCAGTG, the switch fluorescence ratio was 1.01 ± 0.081.
Sequence TGTGTGAAAA has a switch fluorescence ratio of 1 ± 0.032.
In the case of TGTGTGGCGC, the switch fluorescence ratio is reported as 1.02 ± 0.032.
With TGTGTGGGGA the switch fluorescence ratio was 1.01 ± 0.027.
TGTGTGGGTC gave a switch fluorescence ratio of 0.991 ± 0.028.
TGTGTGTGAA showed a switch fluorescence ratio of 0.996 ± 0.035.
Sequence TGTGTGTGGG has a switch fluorescence ratio of 1.03 ± 0.012.
Sequence TGTGTTCCCT has a switch fluorescence ratio of 0.982 ± 0.028.
With TGTGTTCCTT the switch fluorescence ratio was 1 ± 0.018.
TGTGTTTGTT was tested, and the switch fluorescence ratio was 0.998 ± 0.017.
TGTTAAAATT gave a switch fluorescence ratio of 0.969 ± 0.063.
With TGTTAAGGAA the switch fluorescence ratio was 1.02 ± 0.029.
Work on TGTTAATAAC yielded a switch fluorescence ratio of 1 ± 0.052.
TGTTAATATT gave a switch fluorescence ratio of 0.989 ± 0.018.
With TGTTAATGGT the switch fluorescence ratio was 0.994 ± 0.025.
Sequence TGTTAATGTG has a switch fluorescence ratio of 1.004 ± 0.0038.
Work on TGTTAATTGA yielded a switch fluorescence ratio of 1.01 ± 0.015.
TGTTACCTGA gave a switch fluorescence ratio of 1.058 ± 0.01.
Sequence TGTTACTCGT has a switch fluorescence ratio of 1.03 ± 0.0012.
Work on TGTTAGAACG yielded a switch fluorescence ratio of 1.02 ± 0.015.
With TGTTAGATGA the switch fluorescence ratio was 0.976 ± 0.013.
For TGTTAGATTT, the switch fluorescence ratio was 1.05 ± 0.19.
TGTTAGGGGC gave a switch fluorescence ratio of 0.98 ± 0.046.
Sequence TGTTAGTCTT has a switch fluorescence ratio of 0.969 ± 0.057.
TGTTAGTTTT gave a switch fluorescence ratio of 0.981 ± 0.013.
Sequence TGTTATATTG has a switch fluorescence ratio of 1 ± 0.035.
TGTTCCAATA was tested, and the switch fluorescence ratio was 1.03 ± 0.024.
TGTTCCGACT was tested, and the switch fluorescence ratio was 1.05 ± 0.051.
With TGTTCCGCCC the switch fluorescence ratio was 2.012 ± 0.0024.
TGTTCCGGGA gave a switch fluorescence ratio of 1.04 ± 0.023.
With TGTTCCTTTT the switch fluorescence ratio was 1.03 ± 0.023.
